Details of experiment [1]: species or system baboons. The following applies: in vivo, sc.
Details of experiment [2]: species or system New Zealand white rabbits. Particulars: rabbit, in vivo.
The target in experiment [3] is T cell receptor Vβ9 on murine tumor-draining lymph node T cells (mouse). In words: cell-based or functional assay.
Experiment [4] has as its target T cell receptor Vβ11 on murine tumor-draining lymph node T cells (mouse). Kind of experiment: cell-based or functional assay.
Experiment [5] concerns the target T cell receptor Vβ8.1 on murine T cells (mouse). Kind of experiment: cell-based or functional assay.
The target in experiment [6] is T cell receptor Vβ5.1, 5.2 on murine tumor-draining lymph node T cells (mouse). Kind of experiment: cell-based or functional assay.
For experiment [7], the target named is T cell receptor Vβ6 on murine tumor-draining lymph node T cells (mouse). Kind of experiment: cell-based or functional assay.
Experiment [8] has as its target T cell receptor Vβ2 on murine tumor-draining lymph node T cells (mouse). Kind of experiment: cell-based or functional assay.
Experiment [9] addresses T cell receptor Vβ7 on murine tumor-draining lymph node T cells (mouse). Kind of experiment: cell-based or functional assay.
The target in experiment [10] is T cell receptor Vβ14 on murine tumor-draining lymph node T cells (mouse). In words: cell-based or functional assay.
Experiment [11] concerns the target T cell receptor Vβ8.2 on murine T cells (mouse). In words: cell-based or functional assay.
For experiment [12], the target named is T cell receptor Vβ12 on murine tumor-draining lymph node T cells (mouse). In words: cell-based or functional assay.
Experiment [13] deals with T cell receptor Vβ8.3 on murine T cells (mouse). Kind of experiment: cell-based or functional assay.
Experiment [14] addresses T cell receptor Vβ3 on murine T cells (mouse). In words: cell-based or functional assay.
Experiment [15] concerns the target T cell receptor Vβ13 on murine tumor-draining lymph node T cells (mouse). In words: cell-based or functional assay.
Experiment [16] concerns the target T cell receptor Vβ17 on murine tumor-draining lymph node T cells (mouse). In words: cell-based or functional assay.

The source of these data is patent US6340461B1 (priority 1996, dated 2002).

With `CC(C)Cc1ccc(C(C)C(=O)O)cc1` (stereo not drawn) [Ibuprofen], in experiment [1], the “effect on SEB induced anorexia and malaise” value is “abrogate some of the anorexia and malaise”. In addition, the “effect on SEB induced fever and anorexia” value in experiment [2] is “reduced febrile responses exceeding 105° F. and shortened the period of anorexia and inanition”.
In the case of “staphylococcal enterotoxin B (SEB) (from UniProt P01552 28-266)”, the % of Total T Cells (Vβ use of tumor-draining LN T cells stimulated with SEB) in experiment [3] was found to be 0%; in [4], 2.9%; in experiment [5] it was 4.8%; in experiment [6], 1.2%; in [7], 0%; in experiment [8] it was 0%. The % of Total T Cells (Vβ use of tumor-draining LN T cells stimulated with SEB) in experiment [9] is less than 1%; in [10] it was 0%; in experiment [11], 15%; in [12] it was 0%; in experiment [13], 19.8%; in [14], 32.5%. In experiment [15], this molecule came in with a % of Total T Cells (Vβ use of tumor-draining LN T cells stimulated with SEB) of less than 1%.
With “Staphylococcus aureus enterotoxin A (SEA) (from UniProt P0A0L2 25-257)”, the % of Total T Cells (Vβ use of tumor-draining LN T cells stimulated with SEA) in experiment [3] was 0%; in [16], 0%; in [4], 34.3%; in experiment [6] it was less than 1%; in [7], less than 1%; in experiment [8], less than 1%. Moreover, the % of Total T Cells (Vβ use of tumor-draining LN T cells stimulated with SEA) in experiment [9] is less than 1%; in experiment [10], less than 1%; in experiment [11] it was 1.5%; in [12], 7.4%; in experiment [14], 29.9%; in experiment [15], 1.5%.
